Test results from publication doi:10.1101/2020.05.07.057075 (bioRxiv, 2020).
Values joined by “and” are separate entries in the source; they are usually repeats but may differ in a detail not shown here. Equal values may be shown once. Values belong to the binder of their own block, whether it stands above or below them.

B3: cytochrome c (Cc), recombinant, purified (natural protein)
chain: not shown
modifications: heme group

Assays:
[1] = molecular target: B3; assay: ITC
[2] = molecular target: T1, full-length nucleophosmin NPM(1-294), recombinant (UniProt P06748 1-294); assay: ITC
SDS-PAGE = molecular target: the molecule itself; assay: SDS-PAGE
[3] = molecular target: NPM oligomerization domain core NPM(9-122) (UniProt P06748 9-122); assay: ITC
[4] = molecular target: NPM(123-294) construct without the oligomerization domain (UniProt P06748 123-294); assay: ITC
[5] = molecular target: T1, full-length nucleophosmin NPM(1-294), …; assay: negative-stain electron microscopy with 3D reconstruction

T1 sequence (P06748 whole entry): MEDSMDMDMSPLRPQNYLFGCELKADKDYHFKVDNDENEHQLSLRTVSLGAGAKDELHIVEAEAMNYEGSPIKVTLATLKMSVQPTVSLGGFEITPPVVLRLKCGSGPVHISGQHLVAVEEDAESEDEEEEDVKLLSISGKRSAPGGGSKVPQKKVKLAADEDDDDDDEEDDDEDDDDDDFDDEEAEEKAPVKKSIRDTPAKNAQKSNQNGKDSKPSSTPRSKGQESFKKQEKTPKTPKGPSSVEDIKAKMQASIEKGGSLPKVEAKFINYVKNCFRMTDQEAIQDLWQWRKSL

B2: NPM oligomerization domain NPM(1-130), His-tagged (domain or fragment)
chain: MEDSMDMDMSPLRPQNYLFGCELKADKDYHFKVDNDENEHQLSLRTVSLGAGAKDELHIVEAEAMNYEGSPIKVTLATLKMSVQPTVSLGGFEITPPVVLRLKCGSGPVHISGQHLVAVEEDAESEDEEE
- stoichiometry N (SDS-PAGE): 5

Binder: B3
- fold decrease of affinity (by KD) upon addition of 0.1 M KCl [2]: 12 fold
- stoichiometry N [2]: 1 Cc:NPM and 2 Cc:NPM
- fold decrease of affinity (by KD) upon addition of 0.1 M KCl [3]: 3 fold
- stoichiometry N [3]: 2 Cc:NPM and 1 Cc:NPM
- Kd [4]: 13 µM
- stoichiometry N [5]: 1 Cc per NPM pentamer

More lines, now with the values ahead:

- Kd [1]: ~200 µM
B1: NPM(225-294) construct, C-terminal globular domain (domain or fragment)
chain: QESFKKQEKTPKTPKGPSSVEDIKAKMQASIEKGGSLPKVEAKFINYVKNCFRMTDQEAIQDLWQWRKSL

- Kd [2]: 0.28 µM
- stoichiometry N [2]: 5.6
Binder: MGRRFLVTVRIQRAGRPLQERVFLVKFVRSRRPRTAS [p19ARF(1-37) domain]
